From patent US20040170622A1, “Methods and compositions for modulating XBP-1 activity” (President and Fellows of Harvard College, priority 2002, published 2004)

What was measured:
[1] = system: IRE1α-mediated XBP-1 mRNA splicing; experiment: XBP-1 mRNA level and splicing in J558 cells (Northern blot, RT-PCR); format: cell-based; settings: J558, Tm 4 hrs; MG-132 10 μM, PS-341 10 μM, ZL3VS 50 μM, AdaAhxL3VS 50 μM
Description: (A) XBP-1 mRNA levels in ER stressed J558 cells treated with Tm for 4 hrs in the absence or presence of MG-132. Cells were pretreated with MG-132 for 1 hr before adding Tm. XBP-1 mRNA levels were determined by Northern blot analysis. […] (C) Effect of a panel of PIs on XBP-1 splicing. Cells were treated with Tm for 4 hrs in the absence or presence of MG-132 (10 μM), PS-341 (10 μM), Lactacystin (10 μM), ZL3VS (50 μM) or AdaAhxL3VS (50 μM), and XBP-1 mRNA splicing measured by RT-PCR analysis. (D) IRE-1α phosphorylation in NIH3T3 cells were treated with Tm as indicated after 2 hrs of pretreatment with MG-132 (10 μM).
Total RNA was prepared by using Trizol reagent, electrophoresed on 1.2% agarose, 6% formaldehyde gels and then transferred onto Genescreen Plus membrane, (NEN, Boston, Mass.). […] Probes for ERdj4 and p58^IPK were generated from cDNA excised from EST clones (ATCC, Manassas, Va.) using appropriate restriction enzymes (ERdj4, IMAGE: 1920927; p58^IPK, IMAGE:2646147).

XBP-1 mRNA = XBP-1 mRNA induction by cytokines in purified splenic B cells (Northern blot); format: cell-based, mouse; settings: 20 μg/ml cycloheximide added 30 min before IL-4, 4 hours
Description: (§1) Mouse splenocytes or purified B cells (purified mature B cells were isolated from spleen and lymph nodes by magnetic CD43 depletion or B220 magnetic bead selection, Miltenyi Biotech, Auburn Calif.) were plated at 1×10^6 cells/ml in complete media containing RPMI 1640 supplemented with 10% fetal calf serum (FBS)(Hyclone Laboratories), glutamine (2 mM), penicillin (50 units/ml), streptomycin (50 μg/ml), Hepes (100 mM), nonessential amino acids (1×) sodium pyruvate (1 mM) and β-ME (50 μM) and stimulated with anti-CD40(1 μg/ml)(Pharmigen) or LPS (20 μg/ml)(Sigma). Cytokines (R&D Systems, Minneapolis, Minn.) were used at IL-4 (20 ng/ml), IL-2 (20 ng/ml), Il-5 (20 ng/ml), IL-6 (20 ng/ml ), IL-10 (20 ng/ml ) and IL-13 (20 ng/ml). Stimulated B cells were split to a cell concentration of 1×10^6 cells/ml with fresh media every 24 h. The BCL1 (CWS13.20-3B3 ATCC CRL 1699) cell line was cultured in RPMI media supplemented with 10% FBS, gentamicin (20 μg/ml), and β-ME (50 μM). To induce differentiation cells were plated at 2×10^5 cells/ml and treated with recombinant mouse IL-2 and IL-5 (20 ng/ml) (R&D systems).
Total RNA was isolated using TriZo1 (Gibco-BRL) or Qiashedder/Rneasy RNA purification columns (Quiagen). Northern Blots were performed as described (Rengarajan et al., 2000 Immunity. 12:293-300). Briefly, 7-10 μg RNA were electrophoresed on 1.2% agarose, 6% formaldehyde gels transferred onto Genescreen membrane (NEN) and covalently bound to the membrane using UV Stratalinker (Stratagene). The following probes were used after ^32P-radiolabeling with the ReadyPrime labeling system (Amersham-Pharmacia): XBP-1 (15-830 of the murine coding region), GRP94 and GRP78 (both a kind gift of R. J. Kaufman Univ. of Michigan (Lee et al., 2002)), Blimp (Nco1-Sca1 fragment), c-myc cDNA and Il-6 cDNA . […]
Since XBP-1 is required for terminal B cell differentiation, it was important to identify the stimuli that regulate XBP-1 gene expression. A plethora of cytokines (IL-2, IL-4, IL-5, IL-6, IL-10, IL-13) has been implicated in plasma cell differentiation both in vitro and in vivo (reviewed in Calame, K. L. (2001 Nat. Inimunol. 2: 1103-1108; Liu, Y. J., and Banchereau, J. (1997). Sem Immunol 9: 235; Zubler, 1997Sem. Hematol 34:13). It was possible that these cytokines effected terminal B cell differentiation by modulating XBP-1 gene expression. Thus, the ability of these cytokines to upregulate XBP-1 mRNA transcripts in B cells was tested. Purified splenic B cells were cultured for 24 h in the presence or absence of various cytokines and XBP-1 expression determined by Northern blot analysis. […] XBP-1 mRNA levels were determined by Northern blot analysis with γ-actin as control. […] XBP-1 mRNA levels were determined as above. […]

[2] = biological target: XBP-1s (spliced form of murine XBP-1 protein, 371 aa) (mouse) (UniProt O35426); experiment: cell-based or functional assay
XBP-1^−/− B cells = experiment: Ig production by retrovirally transduced XBP-1-/- primary B cells (ELISA); format: cell-based, mouse; settings: LPS 10 μg/ml 72 h
Description: (§2) Assays to measure immunoglobulin or cytokine levels in culture supernatants were performed as described (e.g., Hodge et al., 1996 Immunity. 4:397-405 or Science. 1996 274:1903-5).
(§3) The XBP-1 cDNAs for the unspliced (XBP-1u/s) and the spliced (XBP-1s) forms were PCR-amplified from the total RNA of untreated and tunicamycin treated NIH3T3 cells, respectively, with a primer set (5′-[…]-3′ (SEQ ID NO: 7) and 5′-[…]-3′) (SEQ ID NO: 8). XBP-1u form was generated by a PCR-based mutagenesis from XBP-unspliced/s cDNA so that the two G residues at position 532 and 535 were changed to A without changing amino acid sequences in the XBP-1u open reading frame. Numbers are based on the sequences from gene bank database (NM_013842 [gi:13775155]). These XBP-1 cDNAs were inserted into the GFP-RV retroviral vector by using blunt end ligation (Sambrook et al., 1989). EFFECTENE transfection (Quiagen) was used to introduce the DNA into the Phoenix cell line as described by manufacturer (e.g., Reimold et al., 2001 Nature. 412:300-7 or Int Immunol. 2001 13:241-8). Viral supernatants were harvested after 48 hours and frozen at −80° C. for later use. B cells were purified from mouse spleens using CD43 depletion or positive selection with B220+ magnetic beads as described by the manufacturer (MidiMacs, Miltenyi Biotech). B cell purity was generally near 95% as confirmed by flow cytometry. The B cells (10^6 cells /ml) were then activated in culture with LPS 10 μg/ml and F (ab′)2 anti-IgM (5 μg/ml Southern Biotechnology Associates Inc.) for 24 hours. The 1 ml of activated B cells (10^6 cells/ml) were mixed with 4 μg of polybrene and 1 ml of virus-containing supernatant and spun at 1000 g for 45 minutes at 24° C. Cells were incubated for 24-36 h at 37° C. and then GFP+ cells were flow sorted and returned to culture with and without stimulation.
The effects of these three different forms of XBP-1 on Ig secretion were compared in wild type and XBP-1^−/− B cells. In vitro activated splenic B cells were transduced using retroviruses expressing bicistronic mRNA encoding XBP-1u/s, XBP-1s, XBP-1u or control GFP. In FIGS. 5(A) and (B) purified B cells from wt and XBP-1^−/− mice were activated in culture with LPS 10 μg/ml and F (ab′)2 anti-IgM (5 μg/ml) for 24 hours. Retroviral transduction with GFP alone (GFP-Rv), XBP-1u/s (XBP-1u/s GFP Rv), XBP-1s (XBP-1s GFP Rv) or XBP-1u (XBP-1u GFP Rv) of activated B cells was performed. Cells were incubated for 24-36 h at 37° C. and then GFP+ cells were flow sorted and then returned to culture with LPS stimulation (10 μg/ml) for 72 h. IgM panel(A) and IgG2b panel (B) production analyzed by ELISA from culture supernatants of stimulated B cells. Experiments were done at least three times and standard deviation is shown.

BCL-1 cells = experiment: IgM secretion by retrovirally transduced BCL-1 cells (ELISA); format: cell-based
Description: as §1, §2
as §3, with “The 1 ml of activated B cells (10^6 cells/ml) were mixed with 4 μg of polybrene and 1 ml of virus-containing supernatant and spun at 1000 g for 45 minutes at 24° C. Cells were incubated for 24-36 h at 37° C. and then GFP+ cells were flow sorted and returned to culture with and without stimulation.” left out

IL-6 = IL-6 production by retrovirally transduced wt and XBP-1-/- B cells (ELISA, Northern blot); format: cell-based, murine; settings: LPS 72 h
Description: as §2, §3
In human multiple myeloma cells, XBP-1 was induced by IL-6 treatment and implicated in the proliferation of malignant plasma cells (Wen et al., 1999). However, no role for IL-6 in upregulating XBP-1 transcripts or in mediating splicing of XBP-1 RNA in mature B cells has been described (FIG. 6A). The ability of XBP-1 to induce IL-6 production in wt and XBP-1^−/− primary B cells was tested. As described above, in vitro activated murine splenic B cells were transduced using retroviruses expressing bicistronic mRNA for XBP-1u/s, XBP-1s, XBP-1u and control GFP. After cell sorting, GFP^+ cells were stimulated with LPS and assayed for cytokine production after 72 h. In FIG. 6 panel (A) purified B cells from wt and XBP-1^−/− mice were activated in culture with LPS 10 μg/ml and F(ab′)2 anti-IgM (5 μg/ml ) for 24 hours. Retroviral transduction with GFP alone (GFP-Rv), XBP-1u/s (XBP-1 u/s GFP Rv), XBP-1s (XBP-1s GFP Rv) or XBP-1u (XBP-1u GFP Rv) of activated B cells was performed. Cells were incubated for 24-36 h at 37° C. and then GFP+ cells were flow sorted and then returned to culture with LPS stimulation (10 μg/ml) for 72 h. Cytokine production was analyzed by ELISA from culture supernatants of stimulated B cells. Experiments were done at least three times and standard deviation is shown. In panel (B) Total RNAs were prepared from stimulated B cells above and XBP-1 mRNA levels were determined by Northern blot analysis with γ-actin control

With `CC(C)C[C@@H](/C=C/S(C)(=O)=O)NC(=O)[C@H](CC(C)C)NC(=O)[C@H](CC(C)C)NC(=O)CCCCCNC(=O)CCCCCNC(=O)CCCCCNC(=O)CC12CC3CC(CC(C3)C1)C2` [AdaAhx3L3VS] the “effect on Tm-induced XBP-1 mRNA splicing” value [1] was “suppressed XBP-1 mRNA splicing as efficiently as MG-132”.

`CC(C)C[C@@H](/C=C/S(C)(=O)=O)NC(=O)[C@H](CC(C)C)NC(=O)[C@H](CC(C)C)NC(=O)OCc1ccccc1` [ZL3VS] was tested, and the “effect on Tm-induced XBP-1 mRNA splicing” value [1] was “suppressed XBP-1 mRNA splicing as efficiently as MG-132”.

For `C[C@@H]1C[C@@H]([C@H](O)CC2CC(=O)NC(=O)C2)C(=O)[C@@H](C)C1` [cycloheximide, reference compound], the “effect on IL-4-induced upregulation of XBP-1 mRNA” value (XBP-1 mRNA) was “did not affect the upregulation of XBP-1 mRNA in response to IL-4”.

With “XBP-1u (unspliced form of murine XBP-1 protein, 267 aa) (from UniProt O35426 1-267)” the fold induction of luciferase, XBP-luciferase reporter in NIH3T3 cells, 5 uM MG-132, with unspliced XBP-1 (fold induction) [2] was 5.8 and the fold induction of luciferase, XBP-luciferase reporter in NIH3T3 cells, 5 uM MG-132, without unspliced XBP-1 (fold induction) [2] was 41.9.

B1: XBP-1u/s: vector expressing XBP-1 mRNA giving the unspliced form and, upon IRE-dependent splicing, the spliced form (protein, UniProt O35426 1-267, looked up)
X-box-binding protein 1: MVVVAAAPSAATAAPKVLLLSGQPASGGRALPLMVPGPRAAGSEASGTPQARKRQRLTHLSPEEKALRRKLKNRVAAQTARDRKKARMSELEQQVVDLEEENHKLQLENQLLREKTHGLVVENQELRTRLGMDTLDPDEVPEVEAKGSGVRLVAGSAESAALRLCAPLQQVQAQLSPPQNIFPWTLTLLPLQILSLISFWAFWTSWTLSCFSNVLPQSLLVWRNSQRSTQKDLVPYQPPFLCQWGPHQPSWKPLMNSFVLTMYTPSL
modifications: GFP retroviral vector
notes: vector expressing XBP-1 mRNA giving the unspliced form and, upon IRE-dependent splicing, the spliced form
In the case of B1, the “secretion of IgM compared to control cells” value (XBP-1^−/− B cells) is reported as “approximately ten-fold”, the “IgM secretion compared to vector alone controls” value (BCL-1 cells; GFP positive BCL-1 cells treated with IL-2 and IL-5 for 3 days) is reported as “approximately threefold” and the Ig secretion (BCL-1 cells; GFP positive BCL-1 cells untreated with cytokine) is reported as “neither XBP-1u/s nor XBP-1s forms were able to induce Ig secretion”. The “IL-6 secretion over control” value (IL-6) was “approximately 2 fold”.
